Experiments:
Experiment in all cases: pull-down; GST-VRK3 (wild type, S108A, S108E) incubated overnight with recombinant VHR or recombinant phospho-ERK2 in Triton lysis buffer with 1 mM DTT and 10% glycerol, then glutathione-sepharose 4B beads at 4 °C for 1 h
Settings in all cases: both partners purified
[1] = target: T1, GST-tagged recombinant full-length VRK3 (vaccinia-related kinase 3), wild type (human, UniProt Q8IV63 1-474)
T1 construct: vaccinia-related kinase 3 (VRK3), human; coding region amplified by RT-PCR from mRNA of human cell lines and cloned into pGEX4T-3; full length (fragment F3 ends at amino acid 474); pGEX4T-3 vector; also called GST-VRK3; VRK3^WT; source: E. coli BL21 (DE3) pLysS, purified (glutathione-sepharose 4B)
T1 sequence (looked up): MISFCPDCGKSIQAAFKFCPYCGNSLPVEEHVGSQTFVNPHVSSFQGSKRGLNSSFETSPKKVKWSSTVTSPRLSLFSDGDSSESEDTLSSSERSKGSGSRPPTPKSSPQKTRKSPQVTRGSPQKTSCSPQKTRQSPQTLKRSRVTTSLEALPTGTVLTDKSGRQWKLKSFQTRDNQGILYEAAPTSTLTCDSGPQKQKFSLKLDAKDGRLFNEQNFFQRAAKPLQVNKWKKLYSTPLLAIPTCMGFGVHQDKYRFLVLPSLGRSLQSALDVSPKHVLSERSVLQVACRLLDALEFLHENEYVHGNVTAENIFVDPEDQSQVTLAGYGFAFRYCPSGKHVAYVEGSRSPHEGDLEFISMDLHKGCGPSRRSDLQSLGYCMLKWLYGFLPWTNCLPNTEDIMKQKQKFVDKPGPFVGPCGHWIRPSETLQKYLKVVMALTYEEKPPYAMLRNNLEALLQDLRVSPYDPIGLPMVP

GST-VRK3^S108A = target: T2, GST-VRK3^S108A (human, UniProt Q8IV63 1-474, S108A)
T2 construct: vaccinia-related kinase 3 (VRK3), human; S108A made by site-directed mutagenesis in pGEX4T-3; pGEX4T-3 vector; also called S108A mutant VRK3; source: E. coli BL21 (DE3) pLysS, purified (glutathione-sepharose 4B)
T2 sequence (looked up): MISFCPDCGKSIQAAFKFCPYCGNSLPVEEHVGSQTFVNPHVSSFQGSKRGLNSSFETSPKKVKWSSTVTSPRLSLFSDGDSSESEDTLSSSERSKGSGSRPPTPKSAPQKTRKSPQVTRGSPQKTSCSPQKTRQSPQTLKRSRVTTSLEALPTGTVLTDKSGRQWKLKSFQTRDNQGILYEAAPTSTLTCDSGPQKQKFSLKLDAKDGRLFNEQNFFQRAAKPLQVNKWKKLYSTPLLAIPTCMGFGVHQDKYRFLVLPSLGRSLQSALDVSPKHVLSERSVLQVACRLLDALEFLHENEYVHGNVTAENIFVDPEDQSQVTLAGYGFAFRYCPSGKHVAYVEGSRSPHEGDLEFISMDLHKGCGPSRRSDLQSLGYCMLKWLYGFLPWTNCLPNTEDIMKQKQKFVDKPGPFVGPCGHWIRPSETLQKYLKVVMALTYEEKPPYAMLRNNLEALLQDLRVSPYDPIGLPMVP

GST-VRK3^S108E = target: T3, GST-VRK3^S108E (human, UniProt Q8IV63 1-474, S108E)
T3 construct: vaccinia-related kinase 3 (VRK3), human; S108E (phosphomimetic) made by site-directed mutagenesis in pGEX4T-3; pGEX4T-3 vector; also called S108E mutant VRK3; phosphomimetic mutant of VRK3; source: E. coli BL21 (DE3) pLysS, purified (glutathione-sepharose 4B)
T3 sequence (looked up): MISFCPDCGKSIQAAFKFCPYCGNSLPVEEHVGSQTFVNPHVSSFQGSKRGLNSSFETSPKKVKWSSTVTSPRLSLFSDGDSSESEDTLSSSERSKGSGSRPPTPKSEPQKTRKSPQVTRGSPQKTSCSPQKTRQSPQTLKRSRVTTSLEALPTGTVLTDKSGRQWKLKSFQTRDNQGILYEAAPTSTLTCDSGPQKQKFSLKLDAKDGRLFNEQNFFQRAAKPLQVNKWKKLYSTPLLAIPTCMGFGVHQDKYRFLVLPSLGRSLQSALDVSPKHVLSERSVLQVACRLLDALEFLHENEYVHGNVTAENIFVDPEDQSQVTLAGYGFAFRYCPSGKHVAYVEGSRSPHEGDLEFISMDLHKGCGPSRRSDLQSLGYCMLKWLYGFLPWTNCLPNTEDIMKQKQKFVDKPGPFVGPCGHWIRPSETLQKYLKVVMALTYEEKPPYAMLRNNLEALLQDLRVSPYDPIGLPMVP

Measured: binding result

B1: recombinant VHR (vaccinia H1-related phosphatase) (enzyme, human, UniProt P51452 1-185, looked up)
chain: MSGSFELSVQDLNDLLSDGSGCYSLPSQPCNEVTPRIYVGNASVAQDIPKLQKLGITHVLNAAEGRSFMHVNTNANFYKDSGITYLGIKANDTQEFNLSAYFERAADFIDQALAQKNGRVLVHCREGYSRSPTLVIAYLMMRQKMDVKSALSIVRQNREIGPNDGFLAQLCQLNDRLAKEGKLKP
notes: vaccinia H1-related (VHR) phosphatase; coding region amplified by RT-PCR from mRNA of human cell lines (SH-SY5Y, HEK293A, HeLa); source: E. coli BL21 (DE3) pLysS, purified
binds: [1] | GST-VRK3^S108A | GST-VRK3^S108E

Reference: article PMC4922050, “Stress-induced nuclear translocation of CDK5 suppresses neuronal death by downregulating ERK activation via VRK3 phosphorylation” (Scientific Reports, 2016)
